Measured values reported in the domain aggregation screens of Martell et al. (2025).

Test: soluble fraction after stress (log2 fold change); higher = more stays soluble; pooled small domains, quantitative proteomics
Details: stress: 50 degC
Method in brief: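 The stress applied to every library was 50°C. These custom libraries of small protein domains were pooled and measured at high throughput with quantitative proteomics as the read-out. Aggregation propensity is expressed as the base-two logarithm of the fold change in how much of each protein remains soluble. The higher the value, the more of that protein stays in solution.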

Sequence | soluble fraction (log2)
HMPQLVGDVDGDGRVSVTDGEWIRASYGALPWYAGWRAAADLDGSRKIDVVDLELLRTKMGN | -0.191
HMNEMEFAQRLRQFRKAKNLTQQELADRLGVSNKSVSRWESGSYPDVGTLVALARALGVTVDELLDPKA | 0.0532
HMAERVWASLLEIKNAVAIEDAKTLEDVDNSEKIAEERIAALNDDAKHPLAIAFIGKLRQDIAEKKIELA | 0.379
HMTNYNTEKIIPEEQAGKRLDVVLANIFPEFSRSRLKNWIIDGFILVDGKVLRPRDFVTGGELVSIDVIV | -0.1
HMKRGDAYASEMIARLKEAHLIVMEGTLYPLLTRLKNDGLLSYRWEESTQGPPRKYYSITPVG | 0.424
HMNETRVDQAADLLLALLEKEPKSAAEILDEFEQAGFSKSGLYRAKDALGVVSIRKEGRWVWSLPHSLD | -0.104
HMELNDEELIKGIQELLTKIGYDPGEINGVLGIKTSSAISAFQQSRNKAITGEADLDLLVQLQIELRKITT | -0.674
HMKKPAERRKELVDAAAHLFAEKGYENTSVRDILDAVGGAPGMFYYYFKSKQDIYVAVMEDF | -3.54
HMIKITLGWVISVRRHDLGYTQHKMARAVGISDLTVSRIESDDGITPDNNTLRKIAEYLKIDYNSLLTLK | -1.73
HMLFVKLSDAQRSMFGAKLARDARIQSEYAQKLPSENYEVFGKALADMLLDETHFKTFYPLLVEYGYTQPK | -0.406
HMTDLDVAVTMTVALEEAVNGATRRVRLPNGKELNVKIPAGVAAGQQIRLKGQGETAPGHRPGDVLITVNI | -0.262
HMEEEPALLRDLLAKTLEFGLIPQLSHHPALADRTQQLASAVRAAGSASALRNAAASLKSLWIDVDQ | -0.0318
HMSELTKEIGKRIHDFRKSRGLNQEELARLIYKSKATLSKYEKGEIAIDLDTLKQLALALHVRMEQLLPPT | -0.0472
HMDGPGDRLLIAIQENSMTQKKFAQLIGMSPNGLNSIIKGKKRLSRVLAIATERLTGVRADWILQNEQPK | 0.0136
HMRKRLLQLVHIGKSQLGMDDETYRSLLSQQFYQNSAKNISYSELVKLVKILQQKGAKIRLPH | -1.9
HMGFKLQRYTTFVVERLKKYQDTPAAQMHDLLKEHYPDFPAVSPKTVYNYVMKIRQEHGLPAV | -3.63
HMLPLHFIEIVSLKKIDTLTKRKELINYAFSKNEKTYIYKLAFKKKSELDNLYKEINLFNEIINIDIRHS | -0.615
HMLSDEEKMAALNEQARQRGFTISPGVLPYLITHYQRDMHSLSMILDALDRYSLQTKRTITLPLLHDLLQQ | -1.06
HMEQISDEDTLRKMVNEVLDNNQTQLEQYKSGKTNLIGFFVGQTLKKSAGKANPSIVNKLVNEEIYI | 0.00998
HMSPVKAPLPGVVLDIHVSVGQEVKASDTVVTLEAMKMENAIKAGVDGKVASISVGKGDSVLEGAVLLTI | 0.0738
HMDISAFDTEFIISKFGGIRPMAQKLGVPVSTVQGWKQRQTIPQNRMGDILEAAKNYNLELTP | 0.0856
HMLSLGIMEADMLKTGKHTISGISKATPEQRQKIDSDIEELKKKYPEKNITSKVENDNLIVESGVTAP | 0.278
HMPEEGPSEDGNSFTAKFKLGSDVQGAMEQADAAAKAGLQDAGKGTGQITSRAQVGGYIYSTATA | 0.0661
HMSINQTIEGKKQGYWIIYGNMRNLQEYLSNEVIEEGQFKNSRKEGVWRKYFPGGQMKSEITYINGRP | -0.309
HMEYQTVEKSEAEQIIQELEKAERLALKVYSKNDIITGISVSDGKSYYFSAELVPMLKNIIENPEIKIL | -0.623
HMENWMPNLVNQDKRLAINTLRELGFTEEAGNLVIREETSEDVTKDYVISTDPVAETDLADVEKVTLVVSS | 0.0767
HMILKNVPSNLVNQRLDKVATVLFQTYSRTQIKKWILEGRLLVNGEISNPKDLVNENDEIEINPI | -1.6
HMGNVRSWKGWTSAGGTRVQMRQGDSINSMARRYGVPIQAIVAVNGIDDPAKVQPGQSVIIPTYVY | 0.0448

Sequence | soluble fraction (log2)
HMVFKSAQEGLDFYSKQLNDVDATLGRIRRGEESGNGLYGSNRVKNLEEQRKKLDSFVTAYRNAVNAT | 0.08
HMKEQYDLNDREQQFISLVANGLNNKEIAETLFLSEGTVRNYLSNLLDKLGLRDRTQLAIFFYQHL | -0.953
HMDWVAYGAELRRRRLLAGWTVAELSRRINLSGMTIHQIEKGRGRLRPSELTLAKLAAALGMPTP | -3.47
HMTEDIAVRILEFLEDNNGFYALNDKTPSEKIHDLFGVSKKKFKIALGGLYKQRLITVSDAGVTLVK | -1.29
HMSDEAGKVLQLLRENGGYLPYNDRSDPEDIYAFFSMSKKTFKMTAGNLYKQKKIIFTNTGIKLTE | -0.856
HMSDSAFAEMRRELEALRNSNAEYERALSNFFPEAEDKALAAEAFYQNREYDELVAEREEANVIDGLKR | -0.094
HMKTSVGSKMMVMANNLSIRKSANLLSEKLADLSKGDMVEYISSTNGWNKVRYNGYVGYVSSYYLKDTGEV | -0.738
HMLRTLSTSEFAEAIGISESSARRLADSGDLRIRRTKGGHRKIPAEEAIRYAREIQATVVRPDLLGLST | 0.0109
HMEVSLEDKMDYLTNYATTHKNFSFRNLLESSSGKIEVIVTFLAILELMKMGRINISQEHIFDDIIIESRI | -2.53
HMGRWQPSTSAKQHGESALLLERLLHLERLTVSEAFHVLTINHRLNLSLPEYRSLLAVVQLPK | -1.57
HMHLTNIPKGFTPSFDTKQWIVEEFGERYNYDNELKIFINHYRASGTTKSDWQYAFRSWLLRAKKFT | -2.32
HMKPQKRYLFEEVLTFLKHNSEKSFNYKQLGAAMEISNESDRFTLLETLEELKHQGFVVEKEIGKYQAKE | -0.527
HMISADSSKVDTLVQVYSNMKPIQAAQVFEKMDEDLVIEILSRMKKKNAADILNLIKTEKAQVFAEKYA | 0.0124
HMISSRDAAVIGLVENIQRAQLNAIDESSGFKHLMETYNLESKEIALLVGKSRSYVSNSLRLSK | -0.0196
HMYAPKIETIQVPQDKIREVIGTGGKVIREIVETTGAKIDIGDTGLIKVASSDGEAIRAALDWINSIVAE | 0.117
HMRTYEHALTEEEKELILIVSNLSEYKSLPPSQIVPKLADLGIYIASESSFYRVLRAHNQLHHRGR | -2.56
HMLYGRRFQVEGLNLERYLRAAADSGIPLKGARRFGRTLTGVAAEEHMAALEALARQGGWLFTPLEAVGAN | -0.22
HMSGPSDRDLFDEALALLSGSGREPDYHEARIRLGTLVEQFPESKWAEGAKALLSMLDRVSALQV | 0.246
HMSDIQKGTQINLVNEPLYVSSKTSIVSTYKTGTYYTWGFEANNRIAITNKLENIGVKGQVTGWINKP | -1.1
HMDRETEEYELIRAKLEWLYQKQTGTIRNQTAKILHHLEIAKEEGNYYLYLKIKEEAKQWLVQASMYLD | -0.231
HMSVPEAAERAIDVAQMRRALGELSPEQQRVLELAYFGGLTRQEIARATGTPLGTVHTRARLGLQNLRARL | -0.299
HMNMDLGHSISKLRTDANLTQEKFAQILNVSRQTVQKWEYGEALPDIHNIIKIAKFFNISLDALVLRS | -0.159
HMWNLPDPVVRPEGNVTVYENFKNTVEVLNREADLVLKFLQNEFGTSANIDDTGRARLTGSFSTDRVSSVI | -0.214
HMAGWMPGGTNPAEPGRFAVLMDVDDSDAYKHMFLRWNGHAWEFERTRVLVKMEPSWWMRLPDDPEKP | -1.99
HMEVSTRQVRAALRDIIEAEDKKRPLSDEAITARLREQGLPVARRTVAKYREQMGILAARLRK | -0.309
HMPELSNNLDRDKVALKNFNESLKDGLTPAEAYANHLTNVSKAAQEAARQSNGLPVDIDKYHNSQLAASMA | 0.273
HMDPIATLTPREREVLSLMAEGRSNGAIAAALVVGDGAVEKHVSNIFQKLELTPAEGDHRRVLAVLRWLE | -0.901
